{
  "source": "patent US20250346646A1",
  "about": "“COMPOUNDS USEFUL TO TREAT METABOLIC DISORDERS” (President and Fellows of Harvard College, priority 2016, published 2025)",
  "key": {"[1]": {"test_system": "aP2 knockout mice", "experiment": "Glucagon response of aP2 knockout mice given aP2, with or without CA33 preincubation", "format": "in vivo, mouse", "details": "CA33 preincubated with aP2", "text": "Mouse and rabbit-mouse hybrid monoclonal antibodies raised against the human and mouse aP2 peptides were produced and screened. […] The systemic improvement in glucose metabolism was further verified using a glucose tolerance test (GTT)."}, "[2]": {"target": "aP2 (Homo sapiens, UniProt P15090)", "sequence (P15090 whole entry)": "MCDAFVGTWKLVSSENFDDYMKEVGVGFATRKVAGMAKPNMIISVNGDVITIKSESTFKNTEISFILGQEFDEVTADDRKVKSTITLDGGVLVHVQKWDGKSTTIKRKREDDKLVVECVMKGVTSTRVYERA", "experiment": "Paranaric acid (lipid) binding to aP2", "details": "vs IgG control antibody, over pH", "method": "FIG. 10F is a line graph showing paranaric acid binding to aP2 (relative fluorescence) vs. pH in the presence of IgG control antibody (circles) or CA33 antibody (squares).\nIn further analysis, epitope identification based on hydrogen-deuterium exchange mass spectrometry experiments, for example, as described by Pandit et al. (2012) J. Mol. Recognit. […] Co-crystallization of the Fab fragments of CA33 and H3 with aP2 (FIG. 10D) was then conducted. […] Despite the partial blocking of H3 by CA33, we observed that there is in fact no direct overlap of their epitopes. Instead, the significant movement of the region around aP2 Phe58 may partially block binding of one antibody by the other in the competition experiments. In addition, the low affinity of the CA33 Fab can be explained by the crystal structure. Unusually, only one amino acid in the heavy chain of CA33 makes a contact with aP2, and the majority of the contacts are through the light chain (FIGS. 10D and 10E). In contrast, H3-aP2 contact is more conventional, with both Fab chains interacting with aP2. […] H3 does bind directly to the ‘lid’ but has limited activity. Binding of CA33 to lipid-bound aP2 or lipid-free aP2 was also examined using biochemical analysis (Biacore). CA33 binds to both lipid-bound aP2 and lipid-free aP2 with the following affinities: […]"}, "[3]": {"test_system": "diet induced obese (DIO) mice", "experiment": "Antibody treatment of obese mice on high-fat diet (fasting glucose, GTT, ITT)", "format": "in vivo, mouse", "details": "obese mice on HFD", "method": "FIG. 9B is bar graph showing blood glucose levels (mg/dL) at week 0 (open bars) or week 4 (solid bars) in obese mice on a high-fat diet (HFD) treated with vehicle or anti-aP2 monoclonal antibodies CA33, CA13, CA15, CA23, or H3. Blood glucose levels were measured after 6 hours of day-time food withdrawal. *p<0.05, **p<0.01.\nThe test was performed after 2 weeks of treatment in obese mice on HFD with vehicle (diamonds) or anti-aP2 monoclonal antibodies (0.75 g/kg glucose)(CA33; squares)(CA15; triangles). *p<0.05.\nFIG. 12A is a line graph showing glucose levels (mg/dL) vs. time (minutes) in a glucose tolerance test (GTT) following two weeks of selective antibody treatment using high affinity antibodies (CA13, CA15, CA23, and H3) versus vehicle control in high fat diet fed mice.\nFIG. 12B is a line graph showing glucose levels (mg/dl) vs. time (minutes) in an insulin tolerance test (ITT) following three weeks of selective antibody treatment using high affinity antibodies (CA13, CA15, CA23, and H3) versus vehicle control in high fat diet fed mice.\nAnimal care and experimental procedures were performed with approval from animal care committees of Harvard University. Male mice (leptin-deficient (ob/ob) and diet induced obese (DIO) mice with C57BL/6J background) were purchased from The Jackson Laboratory (Bar Harbor, ME) and kept on a 12-hour light/dark cycle. […] Body weights were measured weekly in the fed state. Blood glucose levels were measured weekly after 6 hours of food withdrawal or after 16 hours overnight fast. […]\nTwenty-four hours post transfection a bolus feed was added and the temperature was reduced to 32° C. and maintained for the duration of the culture period (12-14 days). […] The UV absorbance peak at A280 nm was collected during elution from the column using 0.1M sodium citrate pH 3.4 elution buffer and then neutralized to pH 7.4 by addition of 2M Tris-HCl pH 8.5. […]"}, "[4]": {"target": "glucagon/aP2 complex (Homo sapiens, UniProt P01275+P15090)", "sequence (P15090 whole entry)": "as above", "sequence (P01275 53-81 limits assumed)": "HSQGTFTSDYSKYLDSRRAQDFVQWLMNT", "experiment": "Blitz binding to tethered aP2 in glucagon plus mAb solution", "details": "biotinylated aP2 on streptavidin probes", "method": "Binding affinity studies were performed using a Blitz instrument (Pall Life Sciences, Menlo Park, CA). Biotinylated aP2 was attached to streptavidin probes."}, "[5]": {"test_system": "HFD-induced obese aP2−/− mice", "experiment": "CA33 treatment of HFD-induced obese aP2−/− mice", "format": "in vivo, mouse", "method": "FIG. 11A is a bar graph showing fasting blood glucose (mg/dL) in HFD-induced obese aP2−/− mice before (open bars) and after CA33 antibody or vehicle treatment for three weeks (solid bars).\nThe test was performed after 2 weeks of vehicle (triangles) or CA33 antibody treatment (squares) in aP2−/− mice.\nAnimal care and experimental procedures were performed with approval from animal care committees of Harvard University. Male mice (leptin-deficient (ob/ob) and diet induced obese (DIO) mice with C57BL/6J background) were purchased from The Jackson Laboratory (Bar Harbor, ME) and kept on a 12-hour light/dark cycle. DIO mice with C57BL/6J background were maintained on high-fat diet (60% kcal fat, Research Diets, Inc., D12492i) for 12 to 15 weeks before starting treatment except in clamp studies, for which they were on HFD for 20 weeks. Leptin-deficient (ob/ob) mice were maintained on regular chow diet (RD, PicoLab 5058 Lab Diet). Animals used were 18 to 31 weeks of age for dietary models and 9 to 12 weeks of age for the ob/ob model. In all experiments, at least 7 mice in each group were used, unless otherwise stated in the text. The mice were treated with 150 μl PBS (vehicle) or 1.5 mg/mouse (˜33 mg/kg) anti-aP2 monoclonal antibody in 150 μl PBS by twice weekly subcutaneous injections for 3 to 5 weeks. Before and after the treatment, blood samples were collected from the tail after 6 hours of daytime food withdrawal. Body weights were measured weekly in the fed state. Blood glucose levels were measured weekly after 6 hours of food withdrawal or after 16 hours overnight fast. After 2 weeks of treatment, glucose tolerance tests were performed by intraperitoneal glucose injections (0.75 g/kg for DIO, 0.5 g/kg for ob/ob mice). After 3 weeks of treatment, insulin tolerance tests were performed in DIO mice by intraperitoneal insulin injections (0.75 IU/kg). After 5 weeks of treatment, hyperinsulinemic-euglycemic clamp experiments were performed in DIO mice as previously described (Furuhashi et al., (2007) Nature 447, 959-965; Maeda et al., (2005) Cell metabolism 1, 107-119). […]"}},
  "data": [
    {"molecule": "CA33: low-affinity anti-aP2 monoclonal antibody, rabbit-mouse hybrid, produced and purified by UCB; VL Seq. ID 28, VH Seq. ID 41 (antibody, V domains shown, Rabbit Ab 909 VH region; Rabbit Ab 909 VL-region) VH: QSVEESGGRLVTPGTPLTLTCTVSGFSLSTYYMSWVRQAPGKGLEWIGIIYPSGSTYCASWAKGRFTISKASTTVDLKITSPTTEDTATYFCARPDNDGTSGYLSGFGLWGQGTLVTVSS VL: DVVMTQTPASVSEPVGGTVTIKCQASEDISRYLVWYQQKPGQPPKRLIYKASTLASGVPSRFKGSGSGTDFTLTISDLECDDAATYYCQCTYGTYAGSFFYSFGGGTEVVVE", "values": [
      {"measurement": "Glucagon responsiveness of aP2 knockout mice", "setting": "[1]", "value": "prevents that"},
      {"measurement": "Effect on lipid (paranaric acid) binding to aP2", "setting": "[2]", "value": "not substantially altered"},
      {"measurement": "Fasting blood glucose", "setting": "[3]; 33 mg/kg s.c. twice weekly, week 4 vs week 0, 6 hours food withdrawal", "value": "significantly decreased"},
      {"measurement": "Glucose tolerance (GTT)", "setting": "[3]; after 2 weeks of treatment, 0.75 g/kg glucose", "value": "significantly improved glucose tolerance"},
      {"measurement": "Insulin sensitivity (insulin tolerance test)", "setting": "[3]; after 3 weeks of treatment", "value": "markedly improved insulin sensitivity"},
      {"measurement": "Binding to the glucagon/aP2 complex", "setting": "[4]", "value": "strong binding"},
      {"measurement": "Weight", "setting": "[5]; aP2−/− mice fed a HFD", "value": "failed to induce any change"},
      {"measurement": "Fasting glucose", "setting": "[5]; aP2−/− mice fed a HFD, three weeks treatment", "value": "failed to induce any change"},
      {"measurement": "Glucose tolerance (GTT)", "setting": "[5]; obese aP2−/− mice, after 2 weeks of treatment", "value": "did not affect glucose tolerance"}
    ]}
  ]
}
